Measurements reported in patent US20230391828A1 (TECHNISCHE UNIVERSIT T DRESDEN, published 2023).
Bridge positions count the residues as written; N and C are the ends. Square brackets hold non-standard residues; d marks the D form. R8 = C=CCCCCCC[C@@](C)(N)C(=O)O; S5 = C=CCCC[C@](C)(N)C(=O)O; Pra = C#CC[C@H](N)C(=O)O

Experiments:
RBX1 = target: T1, RBX1 (human (HeLa K cells), UniProt P62877 2-108); assay: pull-down from HeLa K cell extract with G3-6Pra on azide magnetic beads, western blot
T1 construct: Detected by western blot after pull-down from HeLa K cell extract
T1 sequence (P62877 2-108 limits assumed): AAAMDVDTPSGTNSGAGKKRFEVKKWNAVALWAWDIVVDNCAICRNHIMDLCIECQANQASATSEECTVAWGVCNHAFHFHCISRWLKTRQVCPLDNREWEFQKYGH
Method: (§1) As a control, G3-N4Pra negative control molecule was used. Western blot analysis was performed and indicated proteins were detected using near-infrared fluorescence imaging. GAPDH serves as a control for unspecific binding.
(§2) In mean time, inhibitor molecules containing Propargyl (Pra) chemical group were covalently attached to the azide agarose or azide magnetic resin (Jena Bioscience) by Cu(I)-catalysed azide-alkyne cycloaddition reaction. […] The reaction was catalysed by 1 mM CuSO₄, 0.1 mM TBTA (Sigma-Aldrich) and 1 mM Sodium ascorbate and was performed on the rotating wheel for 30 min at room temperature in the volume of 1 ml. Subsequently, the resin was washed 5 times with the extraction buffer. The inhibitor-agarose resin was added to 1 mg of HeLa K cell extract and the inhibitor-magnetic resin was added to 0.5 mg of HeLa K cell extract followed by incubation at 4° C. for 2 h. Followed by washing the resin 5 times with the extraction buffer. Pull-down proteins were eluted by boiling for 15 min with 1×LDS sample buffer supplemented with 100 mM DTT (agarose resin) or by incubation with 1×LDS sample buffer for 10 min at room temperature followed by taking supernatant that was supplemented with 100 mM DTT and boiling it for 10 min. Samples were subjected to SDS PAGE and Western blot analysis.

Cullin 1 = target: T2, Cullin 1 (human (HeLa K cells), UniProt Q13616 1-776); assay: as above
T2 construct: Detected by western blot after pull-down from HeLa K cell extract; also called Cullin 1, subunit of E3 ubiquitin ligases related to the APC/C
T2 sequence (Q13616 whole entry): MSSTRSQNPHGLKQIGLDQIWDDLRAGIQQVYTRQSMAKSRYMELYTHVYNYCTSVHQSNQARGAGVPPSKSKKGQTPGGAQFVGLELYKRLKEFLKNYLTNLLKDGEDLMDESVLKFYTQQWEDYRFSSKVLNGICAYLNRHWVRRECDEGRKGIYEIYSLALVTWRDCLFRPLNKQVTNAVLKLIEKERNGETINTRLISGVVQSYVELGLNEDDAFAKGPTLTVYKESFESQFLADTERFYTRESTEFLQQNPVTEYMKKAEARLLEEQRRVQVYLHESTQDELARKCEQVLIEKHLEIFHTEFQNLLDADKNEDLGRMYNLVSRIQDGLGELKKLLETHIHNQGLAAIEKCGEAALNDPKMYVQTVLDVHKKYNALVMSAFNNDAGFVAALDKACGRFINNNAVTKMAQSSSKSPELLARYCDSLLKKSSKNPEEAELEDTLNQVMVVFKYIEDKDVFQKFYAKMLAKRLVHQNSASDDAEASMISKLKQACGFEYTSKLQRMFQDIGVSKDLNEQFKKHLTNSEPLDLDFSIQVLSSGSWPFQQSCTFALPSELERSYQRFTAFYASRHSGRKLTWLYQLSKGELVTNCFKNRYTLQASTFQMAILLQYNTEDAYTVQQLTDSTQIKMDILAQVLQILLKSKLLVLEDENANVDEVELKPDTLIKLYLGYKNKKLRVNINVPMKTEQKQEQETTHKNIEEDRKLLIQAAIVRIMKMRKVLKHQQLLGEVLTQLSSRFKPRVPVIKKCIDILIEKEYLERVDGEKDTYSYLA
Method: as §1, §2

binding result (RBX1): no binding
binding result (Cullin 1): no binding
B1: G3-6Pra, Ac-cyclo(4,11)-EWPraZIKEIQRXRRA-NH2 (peptide)
peptide: Ac-EW[Pra][R8]IKEIQR[S5]RRA-NH2
modifications: staple 4-11; not fully specified (residue 3); printed as Ac-cyclo(4,11)-EWWZIKEIQRXRRA-NH2
notes: In the pull-down it was covalently attached to azide magnetic beads through Pra; also called ID; NO; 37
